Among the data in paper PMC11006224 are Kd values, retold here.

Usually Kd stands for the constant that tells how readily two partners part at equilibrium. Read a low Kd as tighter binding.

The target of the assay is human FcRn-b2m protein construct containing an AviTag (human) (UniProt P55899). The experiment in a line: BLI. For orientation: In BLI a coated tip is dipped into the sample, and binding shifts an interference pattern.
UniProt P55899, sequence (P55899 24-365, chain 1 of 2): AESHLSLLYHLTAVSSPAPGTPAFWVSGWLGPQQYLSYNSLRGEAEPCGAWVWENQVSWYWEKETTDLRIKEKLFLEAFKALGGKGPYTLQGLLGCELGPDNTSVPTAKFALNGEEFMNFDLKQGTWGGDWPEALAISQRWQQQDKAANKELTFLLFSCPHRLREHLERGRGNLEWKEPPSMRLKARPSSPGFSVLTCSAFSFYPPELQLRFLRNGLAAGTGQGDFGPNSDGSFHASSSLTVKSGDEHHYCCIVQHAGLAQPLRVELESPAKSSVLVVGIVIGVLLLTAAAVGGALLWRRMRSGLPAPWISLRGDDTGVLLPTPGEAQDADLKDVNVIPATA
UniProt P55899, sequence (P61769 21-119, chain 2 of 2, further chain): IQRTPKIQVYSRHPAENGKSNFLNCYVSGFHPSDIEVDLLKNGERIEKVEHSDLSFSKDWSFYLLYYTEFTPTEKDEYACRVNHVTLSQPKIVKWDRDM

On to “rituximab IgG1, full length (from UniProt P01857 1-399) (antibody)”, for which the Kd came out at 14.3 nM.
